Paper PMC5686162, “Non-canonical activation of OmpR drives acid and osmotic stress responses in single bacterial cells” (Nature Communications, 2017)

Columns and labels:
[1] = molecular target: EnvZc C277Y (S. Typhimurium) (UniProt P08982); assay: SEC; gel filtration profiles of EnvZc, EnvZc C277Y, OmpR, (OmpR + EnvZc) and (OmpR + EnvZc C277Y); Superose 12 10/300 GL for EnvZc, AKTA FPLC, 0.5 ml/min, 'suitable buffers'; fractions analysed by SDS-PAGE
OmpR = OmpR (UniProt P0AA16); assay: SEC; oligomeric state of OmpR alone under acidic conditions; Hiload 16/60 Superdex 75 pg for OmpR; OmpR buffer exchanged into 20 mM Tris, 200 mM NaCl
EnvZc = molecular target: T1, EnvZc ( (S. Typhimurium or E. coli …, UniProt P08982 1-450)); assay: SEC; gel filtration profiles of EnvZc, EnvZc C277Y, OmpR, (OmpR + EnvZc) and (OmpR + EnvZc C277Y); Superose 12 10/300 GL for EnvZc, AKTA FPLC, 0.5 ml/min, 'suitable buffers'; fractions analysed by SDS-PAGE; settings: both partners purified
T1 construct: EnvZ sensor histidine kinase, cytoplasmic domain (EnvZc); also called wild-type EnvZc; cytoplasmic domain of EnvZ
T1 sequence: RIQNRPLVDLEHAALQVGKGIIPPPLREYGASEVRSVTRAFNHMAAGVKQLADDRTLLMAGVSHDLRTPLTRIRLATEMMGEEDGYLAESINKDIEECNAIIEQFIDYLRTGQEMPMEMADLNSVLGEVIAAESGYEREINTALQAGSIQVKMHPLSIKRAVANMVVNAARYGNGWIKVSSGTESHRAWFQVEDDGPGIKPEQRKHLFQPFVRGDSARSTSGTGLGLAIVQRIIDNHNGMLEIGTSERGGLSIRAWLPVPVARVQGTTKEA

EnvZc C277Y (from UniProt P08982 1-450) (domain or fragment)
stoichiometry N [1]: 2

OmpR (from UniProt P0AA16 1-239) (natural protein)
stoichiometry N (OmpR): 2

B1: OmpR (natural protein)
chain: MQENYKILVVDDDMRLRALLERYLTEQGFQVRSVANAEQMDRLLTRESFHLMVLDLMLPGEDGLSICRRLRSQSNPMPIIMVTAKGEEVDRIVGLEIGADDYIPKPFNPRELLARIRAVLRRQANELPGAPSQEEAVIAFGKFKLNLGTREMFREDEPMPLTSGEFAVLKALVSHPREPLSRDKLMNLARGREYSAMERSIDVQISRLRRMVEEDPAHPRYIQTVWGLGYVFVPDGSKA
notes: OmpR, response regulator of the EnvZ-OmpR two-component system; The unphosphorylated protein was used in gel filtration; also called His-OmpR; source: E. coli BL21 (DE3), from pET15b, purified
stoichiometry N (EnvZc): 2 OmpR molecules per EnvZc dimer
